In patent publication US20160060354A1 (published 2016):

Biological target: Her (trivalent GalNAc glycan-conjugated)
Experiment: SPR

B1: ASGPR subunit H1 (receptor)
chain: QNSQLQEELRGLRETFSNFTASTEAQVKGLSTQGGNVGRKMKSLESQLEKQQKDLSEDHSSLLLHVKQFVSDLRSLSCQMAALQGNGSERTCCPVNWVEHERSCYWFSRSGKAWADADNYCRLEDAHLVVVTSWEEQKFVQHHIGPVNTWMGLHDQNGPWKWVDGTDYETGFKNWRPEQPDDWYGHGLGGGEDCAHFTDDGRWNDDVCQRPYRWVCETELDKASQEPPLL
Q: Which koff does the source give for B1 here?
A: 1.83e-08 s⁻¹
